Experimental data as given in US20050058697A1, “Cell penetrating therapeutic agents” (priority 2001, published 2005).

Tests used:
[1] = Association of AntpHD-Cw3 with liposomes (size exclusion chromatography, micro BCA protein assay, [3H]CHE lipid count); type: physicochemical; conditions: for coupling efficiency: 10 mol % DOGS-NTA-Ni
Procedure: Formulations were incubated with AntpHD-Cw3, free peptide was separated from the associated peptide using size exclusion chromatography, amount of peptide (□) and lipid (●) was then determined for each fraction as described herein.
DOPC/Chol liposomes containing 0% (O) and 10% (▪) DOGS-NTA-Ni were incubated with AntpHD-Cw3 at various peptide to liposome ratio for 30 min. at room temperature. The amount of peptide bound was determined after the incubation period as described herein. Data presented represent averaged results obtained from three liposome preparations ±S.E.M.
200 μg of dialyzed AntpHD-Cw3 was incubated with 10 μmoles liposomes as described for FIGS. 2-4 (v/v) for 30 min. at room temperature under rotary shaking. The mixture was then loaded on a Biogel™ A 1.5 m chromatography column in order to remove the free peptide from peptide that was incorporated into the liposome. The peptide/liposome ratio was determined by quantifying liposomal lipid using [^3H]CHE. Radioactivity was measured by liquid scintillation counting on a Can berra-Packard scintillation P counter (1900 TR Tri Carb™), using Pico-fluor 40™ scintillation cocktail. The peptide was quantified using the micro BCA™ protein assay kit, after dissolving the liposomes in 0.5% triton. BSA was used as the standard for this analysis.

AntpHD-Cw3: Antennapedia homeodomain fused to Cw3 epitope (170-179), with 10-histidine tag and 13-amino acid linker (SEQ ID NO:1)
coupling efficiency ([1]; initial ratio 60 AntpHD-Cw3/μmole lipid): 80%
coupling efficiency ([1]; initial ratio 80 AntpHD-Cw3/μmole lipid): 65%
saturation of AntpHD-Cw3 binding ([1]; liposomes with 10 mol % DOGS-NTA-Ni, FIG. 3): around 50 μg AntpHD-Cw3/μmole liposomal lipid

CCCCCCCC/C=C\CCCCCCCC(=O)OC[C@H](COC(=O)CCC(=O)NCCCCC(C(=O)O)N(CC(=O)[O-])CC(=O)[O-])OC(=O)CCCCCCC/C=C\CCCCCCCC.[Ni+2] (stereo partly shown) [DOGS-NTA-Ni, 1,2-Dioleoyl-sn-glycero-3-{[n(5-amino-1-carboxypentyl)iminodiaceticacid]succinyl} (Nickel Salt)]
immune response to the lipid alone: little in the way of a detectable immune response
